# Assay results published in the supplement of paper PMC9170038.
# System: MS2 coat protein
# Experiment: apparent KD of MS2 coat protein; designed switch direction (-1 OFF switch, 1 ON switch): -1; higher = weaker reporter binding
# How it was run: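 On Illumina chips, designed RNA switches with common flanks were made by stalled E. coli RNA polymerase. Titrations with SNAP-549-labelled MS2 coat protein, doubling from 0.7 or 1.5 nM to 3 µM, were done with no input, with 200 uM small-molecule ligand, or with an oligonucleotide input. Apparent KD is the median per design over clusters, from curve fits of normalised cluster fluorescence.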
# [1] = Eterna round: R95, input ligand: FMN 200 uM
# [2] = Eterna round: R95, input ligand: microRNA oligo, concentration not stated
# [3] = Eterna round: R95, input ligand: none
# [4] = input ligand: microRNA oligo, concentration not stated
Sequence,apparent KD of MS2 coat protein (input ligand: FMN 200 uM) [nM],apparent KD of MS2 coat protein (input ligand: none) [nM],apparent KD of MS2 coat protein [1] [nM],apparent KD of MS2 coat protein [2] [nM],apparent KD of MS2 coat protein [3] [nM],apparent KD of MS2 coat protein [4] [nM]
"GUAGAGUGAGGAUAUACAAGAUCGAUAGAUCGGCGAUCCAUACAUGAGGAUCACCCAUGUAGAAGGCACUCUAC [Mat - Exclusion 2 - Eli Mod - D7] (Eterna round: R97, puzzle: Exclusion 2)",218,83.5,,,,
"AGGCACUAAGGAUAUACAAAGGUGCUGCGUAUGCUAGCCAGACAUGAGGAUCACCCAUGUAGAAGGUAGGAAUA [EX2 B.14] (Eterna round: R97, puzzle: Exclusion 2)",16.4,16.8,,,,
"UCAAGCUUUAAGCGCGUGAACAUGAGGAUCACCCAUGUAUUUCGGGUUUUGGUUUUUUGUAUGGGUUCUUGUCUUAU [JR_SWV3TOV1_Sub096] (puzzle: Sensor v3, turn-off variant 1)",,,39.2,19.2,41.8,
"ACAUGAGGAUCACCCAUGUAAUGAAGGGUACUAUACUAAACGUAGGAUAUCGAUGUAAGAUUGUACGAGAAGGACGAUUGCCUU [JR_ExcNG3_Sub051] (Eterna round: R96, puzzle: Exclusion NG 3)",,,,,,29.3
"GACAGGCAGGCAGGAUAUGCCCGUGUGGAUGGUGUAGAAGGGCUAGCGGGUCACUUGAGGAUCACCCAAGUGGAGGGUGGCCUA [Mutated MS2 EX1.28] (Eterna round: R96, puzzle: Exclusion NG 1)",51.3,38.2,,,,31.2
UUUGUUGUUGUGAGGAUAUCGUAGUUAUUUUGUAACGAGAAGGCACAUGAGGAUCACCCAUGUUUUUUGAUGGU [JR_BMOE4_Sub063] (puzzle: Brourd's mod of Exclusion 4),,,,24.9,,
"UUUUUCAGGCCAGAUCCUCACAUGAGGAUCACCCAUGUGCUCGUCUGUUUUCGCUCUAGCUUUUUUUUGGUAGUGCU [Level Boss var2-16] (puzzle: Sensor v3, turn-off variant 1)",,,164,31.8,243,
"AGGCCUCGAGGAUAUACAUGAGGAUCACCCAUGUCAUAAUAGAUUGUUAUGAGACAUCGUAGAAGGCGAUGGCC [Eternabot (L2) Solution 98] (Eterna round: R97, puzzle: Exclusion 3)",78.1,30,,,,
"UUAUUAUAUGUAGGAUAUGCAUAUUAUUAUUAUGCAGAAGGACAUGAGGAUCACCCAUGUAUGUUAUUAUUAUAUAUUAUAUAU [Title] (Eterna round: R96, puzzle: Exclusion NG 1)",,,,,,20.7
"GUCGCCAGUGUCAGGAUAUGAUGGCCUCGACGCCGUUAGAAGGGACAUGAGGAUCACCCAUGUAACAAGCGACG [Eternabot (Original) Solution 42] (Eterna round: R97, puzzle: Brourd's mod of Exclusion 4)",31.3,27.8,,,,
"GCAUGUUGGUAGGAUAUGCAGCGAAAACCGCUAGUAGAAGGAUUGACAUGAGGAUCACCCAUGUGAACCGAAGG [Esesbece] (Eterna round: R97, puzzle: Exclusion 6)",139,36.6,,,,
"ACAAGCUUAGGUAAUCAUAACAUGAGGAUCACCCAUGUUCGUCUUAUAAAAAUAAAAAUAAAAAACAAAAAAUAAAA [Sensor V2: 65] (Eterna round: R96, puzzle: Sensor v2, turn-off variant)",33.3,33.8,,,,70.6
"UCUGCCGCUGUGAGGAUAUGCCCAAAUAAAAGCGGGCAGAAGGCACAUGAGGAUCACCCAUGUCCUGCGGUUUU [salish99_bmx4_r4_143] (Eterna round: R97, puzzle: Brourd's mod of Exclusion 4)",180,28.8,,,,
GGUCGGCGAGGAUAUACAUGAGGAUCACCCAUGUGAUAGAGUGCACGCGUACGUGUAUGUAGAAGGCGCUGACG [JL-ex3-3.29 salish99 mod] (puzzle: Exclusion 3),,,160,34.2,66,
